Assay results reported in patent US6884600B1, “Protein phosphatase-1 catalytic subunit interactions” (Medical Research Council London, priority 1996, dated 2005).

Experiments:
[1] = molecular target: T1, PP1c (Oryctolagus cuniculus, UniProt P62143); assay: Glycogen synthase phosphatase activity of PP1c; format: biochemical, rabbit
T1 construct: from tissue; host or cells: rabbit skeletal muscle (PP1G dissociated with LiBr)
Procedure: The glycogen synthase phosphatase activity of PP1c was measured after a 15 minute incubation at 30° C. with the indicated concentrations of M110-(M1-F38) and M110-(M1-E309). Similar results were obtained in three different experiments.
^32P-labelled rabbit skeletal muscle phosphorylase a (containing 1.0 mol phosphate per mol subunit) was prepared by phosphorylation with phosphorylase kinase, ^32P-labelled rabbit skeletal muscle glycogen synthase (containing 1.5 mol/mol subunit in the sites 3 region) was prepared by phosphorylation with glycogen synthase kinase-3 [24]). ^32P-labelled chicken gizzard MLC20 and ^32P-labelled chicken gizzard heavy meromyosin (containing 1.0 mol phosphate per mol subunit) were prepared by phosphorylation with smooth muscle myosin light chain kinase. The dephosphorylation of phosphorylase a (10 μM), glycogen synthase (1 μM) and MLC20 (1 μM) and heavy meromyosin (1 μM) was carried out as in [24]. One unit of activity (U) was that amount which released […] of phosphate in one minute.

[2] = system: M21 subunit; assay: Far Western blotting: interaction with the M21 subunit; format: binding, chicken; conditions: probe 0.2 μg/ml
Chain of M21 subunit (as listed by the source): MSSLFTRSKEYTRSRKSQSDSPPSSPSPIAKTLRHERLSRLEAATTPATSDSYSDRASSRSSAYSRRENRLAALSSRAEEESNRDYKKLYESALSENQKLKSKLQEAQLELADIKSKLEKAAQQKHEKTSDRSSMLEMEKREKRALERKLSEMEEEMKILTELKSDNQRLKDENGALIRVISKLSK
Summary of the method: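 Proteins (PP1M, M110 and M21 fragments, MBP or GST fusions) resolved on 12% or 16.5% SDS gels, transferred to nitrocellulose and probed with digoxigenin-labelled M21, M21-(M1-L146) or MBP-M110-(K933-I1004) at 0.2 μg/ml. Parallel gels Coomassie-stained; protein by Bradford.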

[3] = molecular target: T2, myosin (Gallus gallus, UniProt P10587); assay: Myosin binding assay (pelleting with myosin); design: species or system chicken; conditions: myosin 1 μM, 15 min 0° C.
T2 construct: from tissue; host or cells: chicken gizzard
T2 sequence (P10587 whole entry): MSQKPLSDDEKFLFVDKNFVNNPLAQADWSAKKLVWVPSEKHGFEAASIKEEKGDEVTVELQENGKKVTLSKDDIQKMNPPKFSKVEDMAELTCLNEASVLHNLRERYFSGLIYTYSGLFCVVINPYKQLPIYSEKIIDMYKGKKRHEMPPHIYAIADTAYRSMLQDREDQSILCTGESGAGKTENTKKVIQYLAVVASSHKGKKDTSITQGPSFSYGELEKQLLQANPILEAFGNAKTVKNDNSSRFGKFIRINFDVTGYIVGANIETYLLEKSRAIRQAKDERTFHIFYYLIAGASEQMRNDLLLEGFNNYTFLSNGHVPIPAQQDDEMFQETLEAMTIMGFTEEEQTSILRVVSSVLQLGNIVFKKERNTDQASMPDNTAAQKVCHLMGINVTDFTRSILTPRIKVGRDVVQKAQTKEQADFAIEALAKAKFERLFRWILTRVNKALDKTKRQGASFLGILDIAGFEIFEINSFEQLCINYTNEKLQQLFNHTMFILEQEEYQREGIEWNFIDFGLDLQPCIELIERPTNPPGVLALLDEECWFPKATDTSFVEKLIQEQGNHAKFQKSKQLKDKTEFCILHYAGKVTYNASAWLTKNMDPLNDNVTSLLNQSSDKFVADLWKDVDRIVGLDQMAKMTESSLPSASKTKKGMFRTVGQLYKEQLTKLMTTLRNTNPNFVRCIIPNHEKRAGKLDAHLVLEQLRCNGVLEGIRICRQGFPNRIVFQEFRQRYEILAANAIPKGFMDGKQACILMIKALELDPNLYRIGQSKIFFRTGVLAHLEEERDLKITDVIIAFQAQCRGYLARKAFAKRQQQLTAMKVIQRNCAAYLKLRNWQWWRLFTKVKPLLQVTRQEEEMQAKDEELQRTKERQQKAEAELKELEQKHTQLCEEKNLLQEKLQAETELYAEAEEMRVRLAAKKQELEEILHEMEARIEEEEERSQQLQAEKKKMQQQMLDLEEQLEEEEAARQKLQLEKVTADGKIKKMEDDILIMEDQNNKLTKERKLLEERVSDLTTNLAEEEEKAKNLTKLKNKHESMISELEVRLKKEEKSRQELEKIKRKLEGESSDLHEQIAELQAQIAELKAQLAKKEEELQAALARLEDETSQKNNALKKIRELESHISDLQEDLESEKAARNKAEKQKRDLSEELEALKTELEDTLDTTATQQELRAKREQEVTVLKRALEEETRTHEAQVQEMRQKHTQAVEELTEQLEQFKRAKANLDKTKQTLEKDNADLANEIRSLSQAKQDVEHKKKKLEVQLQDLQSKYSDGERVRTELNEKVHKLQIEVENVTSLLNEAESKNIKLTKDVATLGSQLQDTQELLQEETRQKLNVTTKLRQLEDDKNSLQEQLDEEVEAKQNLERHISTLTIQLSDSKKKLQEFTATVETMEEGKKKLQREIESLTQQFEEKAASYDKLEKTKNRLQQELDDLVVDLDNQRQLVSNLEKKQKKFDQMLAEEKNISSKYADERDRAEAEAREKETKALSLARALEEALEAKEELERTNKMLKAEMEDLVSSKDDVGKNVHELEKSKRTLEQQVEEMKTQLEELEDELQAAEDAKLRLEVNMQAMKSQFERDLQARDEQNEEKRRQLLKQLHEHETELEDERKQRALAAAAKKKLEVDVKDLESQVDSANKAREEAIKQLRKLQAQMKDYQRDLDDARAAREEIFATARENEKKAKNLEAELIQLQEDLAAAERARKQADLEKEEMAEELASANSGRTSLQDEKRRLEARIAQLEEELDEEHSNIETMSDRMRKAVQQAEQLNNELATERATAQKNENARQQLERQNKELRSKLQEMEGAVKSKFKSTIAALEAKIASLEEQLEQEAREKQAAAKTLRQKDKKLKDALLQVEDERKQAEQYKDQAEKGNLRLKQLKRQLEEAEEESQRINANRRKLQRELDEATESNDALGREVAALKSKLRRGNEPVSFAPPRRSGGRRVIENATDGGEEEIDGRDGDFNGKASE
T2 sequence (P02612 whole entry partner): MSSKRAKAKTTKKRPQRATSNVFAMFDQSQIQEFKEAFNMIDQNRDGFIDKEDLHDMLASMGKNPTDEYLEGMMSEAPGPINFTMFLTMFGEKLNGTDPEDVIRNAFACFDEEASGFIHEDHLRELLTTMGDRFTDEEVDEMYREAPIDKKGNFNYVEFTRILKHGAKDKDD
T2 sequence (P02607 whole entry partner): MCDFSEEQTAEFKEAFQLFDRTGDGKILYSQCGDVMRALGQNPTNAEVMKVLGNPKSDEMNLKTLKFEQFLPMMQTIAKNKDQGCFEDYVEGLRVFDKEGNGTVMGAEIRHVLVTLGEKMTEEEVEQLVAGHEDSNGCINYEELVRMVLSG
Summary of the method: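 PP1M, PP1c, PP1M(ΔM21) or M110 fragments (30 nM; M110 fragments and M21 at 100 nM) incubated 15 min at 0° C with 1 μM myosin in 10 mM Hepes pH 7.5, 50 mM KCl, 5 mM MgCl2, then centrifuged 2 min at 13,000×g. Supernatant, pellet and total analysed by immunoblot or P-light chain phosphatase activity.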

T1 sequence (P62143 whole entry): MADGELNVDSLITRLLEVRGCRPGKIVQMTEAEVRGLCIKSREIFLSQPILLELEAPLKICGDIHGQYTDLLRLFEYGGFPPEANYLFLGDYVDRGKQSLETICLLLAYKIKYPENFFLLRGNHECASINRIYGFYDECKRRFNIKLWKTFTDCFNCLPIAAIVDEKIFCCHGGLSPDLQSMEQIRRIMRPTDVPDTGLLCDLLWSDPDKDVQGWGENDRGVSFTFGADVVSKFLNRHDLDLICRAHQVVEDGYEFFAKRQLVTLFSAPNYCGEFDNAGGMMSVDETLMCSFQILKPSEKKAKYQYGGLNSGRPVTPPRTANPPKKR

B1: M110-(M1-E309): rat aorta M110 fragment, residues 1-309, released from GST-fusion protein with thrombin (protein)
chain: GSPGMKMADAKQKRNEQLKRWIGSETDLEPPVVKRQKTKVKFDDGAVFLAACSSGDTDEVLKLLHRGADINYANVDGLTALHQACIDDNVDMVKFLVENGANINQPDNEGWIPLHAAASCGYLDIAEFLIGQGAHVGAVNSEGDTPLDIAEEEAMEELLQNEVNRQGVDIEAARKEEERIMLRDARQWLNSGHISDVRHAKSGGTALHVAAAKGYTEVLKLLIQAGYDVNIKDYDGWTPLHAAAHWGKEEACRILVDNLCDMETVNKVGQTAFDVADEDILGYLEELQKKQNLLHSEKRDKKSPLIESTANMEA
[1]
  effect on the dephosphorylation of glycogen synthase by PP1c: inhibited
[2]
  recognised by digoxigenin-labelled M21 subunit in Far Western blotting: not
[3]
  binding to myosin: did not bind to myosin
